From the supplement of paper PMC9170038

System: MS2 coat protein
Experiment: apparent KD of MS2 coat protein; designed switch direction (-1 OFF switch, 1 ON switch): -1; higher = weaker reporter binding
In short: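 Designed RNA switches sharing common flanks were transcribed on Illumina chips by stalled E. coli RNA polymerase. They were titrated with SNAP-549-labelled MS2 coat protein, from 0.7 or 1.5 nM doubling to 3 µM, in Tris-HCl pH 7.5 buffer with KCl, MgCl2, BSA, DTT, tRNA and Tween-20. Titrations ran without input, with 200 uM small-molecule ligand, or with an oligonucleotide input. The apparent KD of each design is the median over its clusters, after curve-fitting of normalised cluster fluorescence.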

[1] = input ligand: microRNA oligo, concentration not stated
[2] = Eterna round: R95, input ligand: FMN 200 uM
[3] = Eterna round: R95, input ligand: microRNA oligo, concentration not stated
[4] = Eterna round: R95, input ligand: none

Sequence	apparent KD of MS2 coat protein (input ligand: FMN 200 uM)	apparent KD of MS2 coat protein [1]	apparent KD of MS2 coat protein (input ligand: none)	apparent KD of MS2 coat protein [2]	apparent KD of MS2 coat protein [3]	apparent KD of MS2 coat protein [4]
GCGGACUAGUACGUGAGUACUGAGACAUGAGGAUCACCCAUGUAGGAUAUCGAUUCGAAACGAAUCGAGAAGGGCAUAGUCCGC [JL denovo 10] (Eterna round: R96, puzzle: Exclusion NG 3)	19.7 nM	18.9 nM	21.2 nM	–	–	–
GUGGAGUAAGGAUAUACAUGAGGAUCACCCAUGUGAGGGUAUGAGAAGGGAAUGAGAGGUAGAAGGUACGAGGA [JR_Exclu3_Sub069] (puzzle: Exclusion 3)	–	–	–	108 nM	106 nM	186 nM
GUGUACGGAGGAUAUAUGUGGGCAGGCUGACCUGCAGCUUCACAUGAGGAUCACCCAUGUAGAAGGCUGUGCAC [JL-ex2-2.08 Brourd mod] (puzzle: Exclusion 2)	–	–	–	–	16.9 nM	–
ACUCGAGAAGGAUAUACAUGAGGAUCACCCAUGUUAACUCCCAAGGGCAUCUUAAAAGGUAGAAGGUCUUGAAA [Laonbeus] (puzzle: Exclusion 3)	–	–	–	23.7 nM	14 nM	14.1 nM
CUUCGACAUGAGGAUCACCCAUGUCAGGAUAUUGUGUAUCGGGUGUUGGACGGAUAGGCAAGAAGGGAUGUGUG [LRO-Excl1-05] (puzzle: Exclusion 1)	–	–	–	–	27.8 nM	–
CAGUACUGAGGAUAUACAUGAGGAUCACCCAUGUGUUCCAGCUAGGAAACUAGCAAGAGUAGAAGGCAGUACUG [salish99_ex3_r3_066] (puzzle: Exclusion 3)	–	–	–	–	24.1 nM	–
UCAUGGUAGCAGGAUAUGCUUGUUUUUUUUUUUGCAGAAGGGCUUACAUGAGGAUCACCCAUGUGUUAGGUCUA [JR_E6_Sub067] (puzzle: Exclusion 6)	–	–	–	–	27.6 nM	–
UUUUCACAUGAGGAUCACCCAUGUGAGGAUAUGGUUUCGCUGGCCGUAGCCAGUGGAACCAGAAGGCGCAUGAU [Mat - Exclusion 1 - JL Mod - D6] (Eterna round: R97, puzzle: Exclusion 1)	35.3 nM	–	30.2 nM	–	–	–
GCCAGAUCAGGAUAUCUAAUAUAUCACAUGAGGAUCACCCAUGUCCAGCGAAAGCUGGAGGGAGAAGGGAUCUGGC [Mat - Exclusion 5 - Eli mod - D102] (puzzle: Exclusion 5)	–	–	–	39.8 nM	79.8 nM	48.2 nM
CAGUACUGAGGAUAUACAUGAGGAUCACCCAUGUGAUUCAGUGCACGCGUACGUGUACGUAGAAGGCAGUACUG [JL 3.27 m2] (Eterna round: R97, puzzle: Exclusion 3)	761 nM	–	49 nM	–	–	–
GGUCGACAUGAGGAUCACCCAUGUCAGGAUAUCGUCACUGGAGCUUCGGCUCCAGUGACGAGAAGGGAUAUGAU [E1/17-A1] (Eterna round: R97, puzzle: Exclusion 1)	39.1 nM	–	34.2 nM	–	–	–
GCUGGACAAGGAUAUGCAAUCGUGCUUCGGCACGUAAGAUCACAUGAGGAUCACCCAUGUAGAAGGUGUCCAGC [E2/3-C2] (Eterna round: R97, puzzle: Exclusion 2)	62.5 nM	–	24 nM	–	–	–
AGUACUAACACGUAAGUGUUAGUACAAUAAGCUUGUGUUACAUGAGGAUCACCCAUGUCCUCAUAAGCUCGUCUUAU [Mat - Sensor v3 - Turn-off var 2 - D60] (puzzle: Sensor v3, turn-off variant 2)	–	–	–	134 nM	77.6 nM	150 nM
GGCAUAAACGAGGAUAUCGUAUCGGAAACGAUACGAGAAGGUGUAACAUGAGGAUCACCCAUGUUCCUCAAGCC [Mat - Exclusion 6 - Eli Mod - D58] (puzzle: Exclusion 6)	–	–	–	–	38.1 nM	–
AAAUCGGUAGAGGAUAUUGUACAGGAAACGGUGCAAGAAGGUUACACAUGAGGAUCACCCAUGUUAAAUUGCGA [EX6 #52] (Eterna round: R97, puzzle: Exclusion 6)	21.4 nM	–	17.3 nM	–	–	–
UGUUGUCGCGCAGGAUAUGUAUGAGGAUCACCCAUUAAUAAAUUUUAACCACGAGGAUCACCCGUGUAGAAGGGCGGGACAACA [pwkr exNG2 2xF5 1xFMN.15] (Eterna round: R96, puzzle: Exclusion NG 2)	30.8 nM	18.3 nM	29.5 nM	–	–	–
CUCGGCUAAGGAUAUGCAUAGCGGGCCAAGUCUUCUCAAGUACAUGAGGAUCACCCAUGUAGAAGGUAGUUAAC [EX2 B.29] (Eterna round: R97, puzzle: Exclusion 2)	22.4 nM	–	24.5 nM	–	–	–

Sequence	apparent KD of MS2 coat protein (input ligand: FMN 200 uM)	apparent KD of MS2 coat protein [1]	apparent KD of MS2 coat protein (input ligand: none)	apparent KD of MS2 coat protein [2]	apparent KD of MS2 coat protein [3]	apparent KD of MS2 coat protein [4]
AUUUUAGAAGGAUAUUGACCGGUGGACAUGAGGAUCACCCAUGUCGUCCUGCCCAUUCCGUAAGAAGGUCUAGCGU [Eternabot (L1) Solution 96] (Eterna round: R97, puzzle: Exclusion 5)	23.7 nM	–	24.8 nM	–	–	–
UCCUCACAUGAGGAUCACCCAUGUCAGGAUAUACCCAUCCAGCGAAAUUAAAGCUGUAGUAGAAGGGACAUGCA [Raertele] (Eterna round: R97, puzzle: Exclusion 1)	40.4 nM	–	20.1 nM	–	–	–
UAAUUGAUUAAUAGAUUAUACAUGAGGAUCACCCAUGUAGGUCCUACGUGCCAUUUAAGUAGCUCGUCUUAUUAUUA [Sensor-V1 #66] (Eterna round: R97, puzzle: Sensor, turn-off variant 1)	40.2 nM	–	46.5 nM	–	–	–
AGUACUAACGCGAAAGUGUUAGUACAAUAAGCUUGUGAAACAUGAGGAUCACCCAUGUCCUCAUAAGCUCGUCUUAU [salish99_TOv2_r3_023] (puzzle: Sensor v3, turn-off variant 2)	–	–	–	19 nM	549 nM	16.1 nM
GUACUGACAGGAUAUACAUGAGGAUCACCCAUGUGCCUUAGCGCUACAAAAGUAGCGCGUAGAAGGGUCUGUAC [Omei Ex3 Model Bachelor's Dilema v16] (Eterna round: R97, puzzle: Exclusion 3)	22.4 nM	–	14.7 nM	–	–	–
AGGUGUAGAGGAUAUCUCUUCUCUCACAUGAGGAUCACCCAUGUCCUGGGCACCAAGGAGAGAGAAGGCUACACCA [Omei Ex5 D10] (Eterna round: R97, puzzle: Exclusion 5)	72.7 nM	–	271 nM	–	–	–
AGGUGAGCCGUCAGGAUAUGCGUUCCGUAGGGUCAGCAGAAGGGACAUGAGGAUCACCCAUGUUUCGCACGUGG [Veraxedi] (Eterna round: R96, puzzle: Brourd's mod of Exclusion 4)	76.5 nM	23.5 nM	31.5 nM	–	–	–
UUUUGACAUGAGGAUCACCCAUGUUAGGAUAUCUUAAGGGAUGGAACAGGGUCGGAACAGAGAAGGAGCGUGGG [EX1 B.26] (Eterna round: R97, puzzle: Exclusion 1)	82.4 nM	–	47.9 nM	–	–	–
ACAUGAGGAUCACCCAUGUAAACAUAAUGGCUCAUGUAGAGUCAGGAUAUGCGUGGCGAACAAUCGCAGAAGGGACAAGACUGG [Deportation 28 - Jieux - Exclusion NG 3] (Eterna round: R96, puzzle: Exclusion NG 3)	29.2 nM	19.9 nM	27.8 nM	–	–	–
CGCUGGUGAGGAUAUGGGUGUGGUUACAUGAGGAUCACCCAUGUGGAGUCGCAUGUGGGUCCAGAAGGCGCGGGUG [-25.2, -23.4 kcal, 18% A] (Eterna round: R97, puzzle: Exclusion 5)	158 nM	–	215 nM	–	–	–
ACAAGCUUUUUGCUCGUCUACAUGAGGAUCACCCAUGUAGUGAGAUAGUGGUGAAGAUAGAAUGAGCGUAGUAGGUA [JR_SV3TOV1_Sub070] (puzzle: Sensor v3, turn-off variant 1)	–	–	–	14.5 nM	34.1 nM	10.2 nM
GUUUCGUGAGGAUAUGUGGCUUCGAUCGUGCGAAGAAGGCUACAGAAGGCACAUGAGGAUCACCCAUGUUCGUC [salish99_ex4_r4_227] (Eterna round: R97, puzzle: Exclusion 4)	152 nM	–	42.1 nM	–	–	–
AGUACUAACACGGGAGUGUUAGUACAAUAAGCUUGUGAAACAUGAGGAUCACCCAUGUCCUCAUAAGCUCGUCUUAU [salish99_TOv2_r3_060] (puzzle: Sensor v3, turn-off variant 2)	–	–	–	16.6 nM	717 nM	13.8 nM
AAAGAAGAGAGAAAAUAACACAUGAGGAUCACCCAUGUGCGAUGUUGAGGGUGAUACAGGCUUUUUGCUCGUCUUAU (puzzle: Sensor v3, turn-off variant 1)	–	–	–	311 nM	512 nM	199 nM
CCAAGCUUAUUCAUUAACCACAUGAGGAUCACCCAUGUAUAGGCAAUUAUGACUGGGCUCUUUGGUGCUCGUCUUAU [Sensor-V1 #26] (Eterna round: R97, puzzle: Sensor, turn-off variant 1)	11.5 nM	–	11.7 nM	–	–	–
UUUUUAAAUGAAGGAUAUACUUAACAUGAGGAUCACCCAUGUGGUGUUGUGAGUGAGUGAGUUUAGUAGAAGGUCAAUGAUUUU [JMF's solution 65] (Eterna round: R96, puzzle: Exclusion NG 2)	1250 nM	196 nM	211 nM	–	–	–
ACAUGAGGAUCACCCAUGUACACGUAAUGGCUCAUGUAGAGUGAGGAUAUGUGUGACGAACGAGCACAGAAGGCACAAGACUGG [Deportation 12 - Jieux - Exclusion NG 3] (Eterna round: R96, puzzle: Exclusion NG 3)	51.8 nM	39.8 nM	40.2 nM	–	–	–
